# Assay results as given in PMC10144430 (Viruses, 2023).
# B1: soluble nectin-1 (receptor)
# chain: QVVQVNDSMYGFIGTDVVLHCSFANPLPSVKITQVTWQKSTNGSKQNVAIYNPSMGVSVLAPYRERVEFLRPSFTDGTIRLSRLELEDEGVYICEFATFPTGNRESQLNLTVMAKPTNWIEGTQAVLRAKKGQDDKVLVATCTSANGKPPSVVSWETRLKGEAEYQEIRNPNGTVTVISRYRLVPSREAHQQSLACIVNYHMDRFKESLTLNVQYEPEVTIEGFDGNWYLQRMDVKLTCKADANPPATEYHWTTLNGSLPKGVEAQNRTLFFKGPINYSLAGTYICEATNPIGTRSGQVEVNITEFPYTPSPPEHGRRAGPVPTA
# notes: source: baculovirus-infected insect cells (Sf9), purified
# Legend:
# [1] = target: T1, gDL268N_(306t), soluble gD L268N truncated at residue 306 ( (herpes simplex virus; …, UniProt Q69467 26-331, L268N); assay: SPR; Biacore 3000, room temperature, HBS-EP; gD captured via Mab 1D3 on a CM5 chip; soluble nectin-1 injected 300 s at 5 uL/min (also pre-mixed with 1 mM TCEP, binding unaffected); conditions: both partners purified
# T1 construct: source: 293T cells, transfected, purified from supernatant (Ni-NTA resin)
# [2] = target: T2, cys2_(306t), soluble disulfide-bonded gD mutant (K190C-A277C) truncated at position 306 ( (herpes simplex virus)); …, UniProt Q69467 26-331, K190C | A277C, engineered disulfide bond Cys190-Cys277 (reduced where TCEP was added)); assay: as above; conditions: both partners purified
# T2 construct: also called gD cys2; cy2; source: 293T cells, transfected, purified from supernatant (nickel column); not shown: His6, C-terminal, kept
binder,measurement,setting,value
B1,"nectin-1 binding, % of wt",[1],~50 % of wt
same,"nectin-1 binding, % of wt",[2],~40 % of wt
